From the nanobody polyreactivity screen of Harvey et al. (2022)

Assay: yeast display, Sf9 membrane polyspecificity reagent, FACS + sequencing; frameworks hold sequencing errors
Method in brief: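 Genes from sorted yeast were amplified by colony PCR, read by MiSeq 2 × 250 sequencing and filtered on CDR length. These cells carried a synthetic nanobody library in Saccharomyces cerevisiae BJ5465 and were sorted by FACS into low and high (top ~1%) gates on anti-HA and streptavidin fluorescence. Polyreactivity is labelled according to the gate of origin.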

Sequence | polyreactivity (PSR sort gate)
QVHLVESGGGLVHAGGSLRLSCAASRSTFRNYAMGWYRQAHGKEREFVATINWIGGTTYYADSVKGRFTLSRDNAKNTVDLQMNSLKPVDTGVYYCAAQFDYYPWGGYWGQGTQVTVSS | high polyreactivity
QVHLVESGGGLVKAGGSLRLSCAASGGTIFVYMGWYRQDPGKETELVADISGSGGGTYYADSVKGRFTISRDNAMNTVYLQMNSLKPEDTAVYYCAAYYGHTYNGYYYWGQGTQVTVSS | low polyreactivity
QVHLVESGGGLVKAGGSLRLSCAASGNTFLWYAMGWYRQAPGKERELVAAITYSGGSTYYADSVKGRFTISRDNAKNTVYLQMNSLKPEYTPVYYCAAVGSYLAGYQFDYWGQGTQVNVSS | low polyreactivity
QVHLVESGGGLVKAGGSLRLSCAASGRTFAQYVMGWYRQAPGKERELVAAITWSGGSSYYADSVKGRFTISRDNAKNTVYLQMNSLKPEDTALYYCAVKGAGGPKDDYWGQGTQVTVSS | high polyreactivity
QVHLVESGGGLVQAGCSLRLICAASGRIFTLYAMGWYRQAPGTEMEFVAAINRGGSTNYADSVKGRFTISRDNAKNTVYLQMNSLKPEVTAVYYCAAITTSRFRTYSYDYWGQGTKVTVSS | high polyreactivity
QVHLVESGGGLVQAGCSLRVSCAASGRIFLYTGKGWSRQAAGKERELVAAISSGGSTYYADSVKGRFTISRDNAKNTVYLQMNSLKPEDTAVYYCAKEGHVVIFYIGQYELDFWGQGTQVTVSS | low polyreactivity
QVHLVESGGGLVQAGGCLRLICAASGSIFVPYAMGWYRQAPVKERELVAAISRGGDTNYADSVKGRFTISRDNAKNTVYLQMKSLKPEDTAVYYCAKSGYGNRGFDYWGQGTQVSVSS | low polyreactivity
QVHLVESGGGLVQAGGILRLSCAAYGSTFKSYAMGWYRLAPGKERELVAAISSSTGRTYYADSVKGRFTISLDYAKNTVYLQMNSMKPEDTAVYYCNAVHRYERDYCGQGTQVTVSS | high polyreactivity
QVHLVESGGGLVQAGGRLRLSCAASGSIFFRYAMGWYRQAPGKERELVAAINSRGGRTYYADSVKGRFTISRDNAKNTVYLQMNSLKPEDTAVYYCAAKGYWAKGGKTYGGYDYWGQGTQVTGSS | high polyreactivity
QVHLVESGGGLVQAGGSHRLSCAASGSISFIYAMGWYIQAPGKERELVAAITSSGGSTYYADSVKGRFTISRDNAQNTVYLQMNSLKPDDTAVYYCAAERWTSRHYSGNDYWGQGTQVTVSS | low polyreactivity
QVHLVESGGGLVQAGGSHSLSCAASGITFPLYVMGSYRQAPGKERELVAAISASGGSTYADSVKGRFTISRDNAKNTVYLQMNSLKPEDTAVYYCNAAVYVGYEYDYWGLGTQVTVSS | low polyreactivity
QVHLVESGGGLVQAGGSLGLSCAASGFTFTRNTMGWYRQAPGKERELVAAITRGGSTNYADSVKGRFTISRDNAKNTVYLQMNSLKPEDTAVYYCNKGRNVVLVRTADDYWGQGTQVTVSS | low polyreactivity
QVHLVESGGGLVQAGGSLLLSCAASGFTFRTNAMGWNRQAPGKERELVAVISRRGGSTYYADSVKGRFTISRDNAKNTVYIQMNSLKPEDTAVYYCNAGDGTVGRTYYRSYDYWGQGTQVTVSS | high polyreactivity
QVHLVESGGGLVQAGGSLPLSCAASGRTFIYNTMGWYRPAPGKERELVAAITRNGGSTNYADSVKGRFTISRDNAKNTVYLQMNSLKPEDTAVYYCAAKYIRFARSRDYWGQGTQVTVSS | high polyreactivity
QVHLVESGGGLVQAGGSLRLICAASGRILTFNAMGWYRQAPGKERELVAGINWSGDSTYYADSVKGRFTISRDNAKNTVYLQINSLKPEDTAFYYCTKYSYKAHFNYWGQGTQVTVSS | low polyreactivity
QVHLVESGGGLVQAGGSLRLICAATGFIFGSYAMGWYRQAPGKERELVAAINWSGGNTYYADSVKGRFTISRDNEKNTVYLQMNSLKPEDTAVYYCAAQYVTSRFDYWGQGTQVTVSS | high polyreactivity
QVHLVESGGGLVQAGGSLRLSCAAAGSTVVYNVMGWYRQAPGKERELVAAIRWRGGSTYADSVKGRFTISRDNAKKTVYLQMNSLKPEDTAVYYCAAGIPRYWYAGHYDYWGQGTQVTVSS | low polyreactivity
QVHLVESGGGLVQAGGSLRLSCAASGFIFFYYAMGWYRQAPGTERELVAAISRSGGSTYYADSVKGRFTISRDNAKNTVYFQMNSLKPEDTAVYYCAAVWPVIYGMDYWGQGTQVTVSS | high polyreactivity
QVHLVESGGGLVQAGGSLRLSCAASGFIFGYNARGWYRQAPAKERELVAAINWSGGRTYYADSVKGRFTISRDIAKNTVYLQMNSLKPEVTAVSYCNADGSRRYNYWGQGSQVTVSS | low polyreactivity
QVHLVESGGGLVQAGGSLRLSCAASGFIFNYYAMGWYRQAPGKERELVAAISWRGTSTYYADSVKGRFTISRDNAKNTVYLQMNSLKPEDNAVYYCAAAKYPYVRRAWNFVGYDYWGQGTQVTVSS | high polyreactivity
QVHLVESGGGLVQAGGSLRLSCAASGFIFYSNSMGWYRPAPGKERELVAAISSGGGSTRYADSVKGRFTISRDNAKNTVYLQMNSLKPEDTAVYYCASRDGYTIFRSTRYYYWGEGTQVTVSS | high polyreactivity
QVHLVESGGGLVQAGGSLRLSCAASGFIFYYYAMGWYRQAPGKERELFARISRRGGSTYYADSVKGRFTISRDNAKNTVYLQMNSLKPEDTAVYYCAAVYLVYYGVSDMDYWGQGTKVTVSS | high polyreactivity

Sequence | polyreactivity (PSR sort gate)
QVHLVESGGGLVQAGGSLRLSCAASGFNLLPYALGWYRQAQGKERELVATINSGDSTYADSVKGRFTISRDNAKNTVYLQMNSLKPEDTAVYYCNAYWLVVPVDLDYWGQGTQVTVSS | low polyreactivity
QVHLVESGGGLVQAGGSLRLSCAASGFTFGINAMGWYRQAPGKERELVAAINQSGDRTYYADSVKGRFTISRDNAKNPVYLELNSLKPDDTAVYYCAADTSYWYDYYIDYVGYYYWGQGTQVTVSS | high polyreactivity
QVHLVESGGGLVQAGGSLRLSCAASGFTFIRYAMGWYRQAPGKETELVAAISVSGGRTYYADSVKGRFTISRDNAKNTVYLQMNSLKPEDTAVYYCARRPSYYQGDYWGQGTQVTVSS | high polyreactivity
QVHLVESGGGLVQAGGSLRLSCAASGFTFNWYAMGWYRHAPGKERELVAAINSSGGNTYYADSVKGRFTISRDNAKNTVYLQMNSLKPEDTAVYYCAALLWGYVAFDYWGQGTQVTVSS | high polyreactivity
QVHLVESGGGLVQAGGSLRLSCAASGFTFPEYYMGWYRQAPGKESELVAAINYSDGRTFYADSVKGRFTISRDNAKNSVYLQMNSLKPEDTAVYYCASDLSYDVWFFGPDYDYSGQGTQVTVSS | low polyreactivity
QVHLVESGGGLVQAGGSLRLSCAASGFTFRDYAMGWYRQAPGKERELVAAIDIGTTTYYADSVKGRFTISRDNAKNTVYLQMNSLKPEDTAVYYCAAYSFASVYFGTGYDYWGQGTQVTVSS | low polyreactivity
QVHLVESGGGLVQAGGSLRLSCAASGFTFRYYAMGSYRQAPGKERELVASIRRIGGSTYYADSVKGRFTISRDNAKNTVYLQMNSLKPDDTAVYYCAASTNFYYNPEYDSWGQGTQVTVSS | low polyreactivity
QVHLVESGGGLVQAGGSLRLSCAASGFTFTRYAMGWYRQAPGKERELVAAISFSGGSTYYADSVKGRFTISRDNAKNTVYLQMNSLKPEDTAVYYCAGRWSVSYQYWGQGTQVTVSS | high polyreactivity
QVHLVESGGGLVQAGGSLRLSCAASGFTFYYYAMGWYRQAPGKERELVAAISDSGGITYYADSVKGRFTISRDNAKNTVYLQMNSLKPEDTAVYYCAADFATPGPEYDYWGQGTQVTVSS | low polyreactivity
QVHLVESGGGLVQAGGSLRLSCAASGFTLFGYAMGWYRQAPGKERELVAAISKDGGSTYYADSVKGRFTISRDNAKNTVYLQMNSLKPEDTAVYYCAARVKRPQTGYDRRYGYWGQGTQVTVSS | high polyreactivity
QVHLVESGGGLVQAGGSLRLSCAASGIIFGHYDMGWYRQAPGKERELVAAITFTGDSTYADSVKGRFTISRDNAMNTVYLQMNSLKPEDTAVYYCNASVKPSNVWSRGYDYWGQGTQVTVSS | low polyreactivity
QVHLVESGGGLVQAGGSLRLSCAASGIIFGVYAMGWYRQATGKESELVAAIDGNGSSTYYADSVKGRFTISRDNAKNTVFLQMNSLKPEDTAVYYCAAGYWSYLYYWYDFDYWGQGTQVTVSS | low polyreactivity
QVHLVESGGGLVQAGGSLRLSCAASGIIFRHKAMLWYRQAPGKERELVAAISSGGNTYYADSVKGRFTISRDNAKNTVYLLMNSLKPEDTAVYYFADDVQDRYHRAWYDSWGQGRQVTVSS | low polyreactivity
QVHLVESGGGLVQAGGSLRLSCAASGIIFYFYTMGWYRQAPGKERELVAAISSSGGRTFYADSVKGRFTISRDNAKNTDYLQMNSLKPEDTAVYYCAAAHTREYYWGQGTQVTVSS | high polyreactivity
QVHLVESGGGLVQAGGSLRLSCAASGIIFYLYAMGRYRQAPGKERELVAGITSGGDTKYADSVKGRFTISRDNAKNTVYLQMNSLKPEDTAVYYCATDSGSVWQRWGYANYDYWGQGTQVTVSS | low polyreactivity
QVHLVESGGGLVQAGGSLRLSCAASGIIFYRYAMGWYRQAPGKERELVAAISWRGTSTYYADSVKARFTISRDNANNTVYLQMNSLKPEDTEVYYCNAGVRRKYGEYYYWGQGTQVTVSS | high polyreactivity
QVHLVESGGGLVQAGGSLRLSCAASGITFGRNTMGWSRQAPGKERELVDAIDSCGNTYADSVKGRFTISRDNAKNTVYLKMNIVNPEDTAVYYCAVDGGEFSSYGEWGQGTQVTVAS | low polyreactivity
QVHLVESGGGLVQAGGSLRLSCAASGITFYYYAMGWYRQAPGKERELVAAIDTDGSTYYADSVKGRFTVSRDNAKNTVYLQMNILKPEDTAVYYCAAVIEYYPYSGYIYDYWGQGSQVTVSS | high polyreactivity
QVHLVESGGGLVQAGGSLRLSCAASGLIFLAYAMGWYRQAPGKERELVAAISTSGSTYYADSVKGRFTISRDNAKNTVYLQMNSLKPEDTAVYYCAAYDRWSVTYYYWGQGTQVTVSS | high polyreactivity
QVHLVESGGGLVQAGGSLRLSCAASGLIFYFYAKGWYRQAPGKERELVAGITNGGSTNYADSVKGRFTISRDNAKNTVYLQMNSLKPEDTAVYYCAAQYYTVRSTYDYWGQGTQVTVSS | high polyreactivity
QVHLVESGGGLVQAGGSLRLSCAASGLTFAWSAMGWYRPAPGKEREWVAAITSSGSRTYYADSVKGRFTISRDNAKNTVYLQMNSLKPEDTAVYYCAAPSRYRPTKGYPYYYWGQGTQVTVSS | high polyreactivity
